Results published in patent publication US20030104443A1, “AFAP sequences, polypeptides, antibodies and methods” (University of West Virginia, priority 2001, published 2003).

How the values were obtained:
actin filaments [1] = experiment: Confocal microscopy of rhodamine-phalloidin-labeled actin filaments; format: biochemical
Source text: (§1) Binding constants were derived from the sedimentation of rAFAP-110 by actin. Accordingly, rAFAP-110 in the pellet and supernatant correspond to the bound and free rAFAP-110, respectively. The sum of densities of rAFAP-110 bands in the supernatant and pellet corresponds to the total mass of rAFAP-110 in the sample. The data representing the bound rAFAP-110 as a function of free rAFAP-110 were fit by nonlinear least squares to both the Langmuir (B=BMAX/(1+Kd/F)) and […] 2 μM F-actin filaments and different concentrations of rAFAP-110 in 5 mM MgCl2, 1 mM EGTA, 2 mM ATP, and 50 mM KCl at 20,800×g for 30 min at 4° C. After the centrifugation, both supernatant and pellets were analyzed by SDS-PAGE gel. Confocal microscopy assays were performed as described (Ishikawa et al., 1998, J. Biol. Chem., 273:26991-26997). Briefly, 2 μM F-actin containing 10% rhodamine-phalloidin-labeled F-actin were mixed with different concentrations of rAFAP-110 or other purified recombinant proteins in 5 mM MgCl2, 1 mM EGTA, 2 mM ATP, and 50 mM KCl at RT for 30 min. After the incubation, the reactions were applied between glass slides and coverslips and observed under confocal microscopy (Zeiss, Oberkochen, Germany). Samples for negative staining were adsorbed to grids coated with nitrocellulose and stabilized with carbon (Ernest F. Fullam, Latham, N.Y.). Unbound protein was removed by successive washes with buffer and water before staining with 1% uranylacetate (Cooper and Pollard, 1982, Methods Enzymol., 85(PtB), 182-210; Pollard and Cooper, 1982, Methods Enzymol., 85(PtB), 211-233).
To further test AFAP-110's capability to cross-link actin filaments, we analyzed rhodamine-phalloidin-labeled actin filaments for cross-linking by confocal microscopy. In FIG. 9A, purified rAFAP-110 or rAFAP-110^Δcterm were incubated with rhodamine-phalloidin-labeled actin filaments. […] 1, actin filaments only; 2, rAFAP-110 with actin filaments; 3, rAFAP-110^Δcterm with actin filaments. FIG. 9B presents confocal microscopy images. Different concentrations of α-actinin (top two panels, low=0.0625 μM and high=1.25 μM) and rAFAP-110 (bottom two panels, low=0.106 μM and high=2.1 μM) were incubated with rhodamine-phalloidin-labeled actin filaments. […] Actin filaments labeled with rhodamine-phalloidin appeared uniformly fluorescent in the absence of an actin binding protein (FIG. 9A1). […] Electron microscopy was used to confirm rAFAP-110's ability to cross-link actin filaments.

actin filaments [2] = experiment: Low-speed cosedimentation assay (20,800×g), actin filament cross-linking; format: biochemical
Source text: as §1
Actin filaments are unable to efficiently pellet at 20,800×g unless cross-linked to form heavier particles (either isotropic networked or bundled actin filaments; Cooper and Pollard, 1982, supra; Pollard and Cooper, 1982, supra; Meyer et al., 1990, J. Cell. Biol. 110:2013-2024; Wachsstock et al., 1993, Biophys. J., 65: 205-214; Rybakova et al., 1996, J. Cell. Biol., 135:661-672). […] The purified recombinant proteins were incubated with actin filaments and then were centrifuged at 20,800×g. Both supernatants (S) and pellets (P) were applied to SDS-PAGE gel, followed by Coomassie staining. 1, rAFAP-110 with actin filaments; 2, rAFAP-110^Δcterm with actin filaments; 3, rAFAP-110 only; 4, rAFAP-110^Δcterm only; 5, actin filaments only. FIG. 8B is a graph of cross-linked actin filaments versus free rAFAP-110. rAFAP-110 at 0.05,0.11,0.21,0.43, 0.86, and 2.14 μM was incubated with the 2 μM concentration of G-actin polymerized into actin filaments. After the incubation, the reactions were centrifuged at 20,800×g. Both supernatants and pellets were applied to SDS-PAGE gel, followed by the Western blot analysis to detect rAFAP-110 and Coomassie blue staining to detect actin, respectively. The data of cross-linked actin filaments and free rAFA-110 were gathered by scanning densitometry of SDS-PAGE gel analysis.

recombinant PKCα = target: T1, recombinant PKCα (Homo sapiens, UniProt P17252); experiment: In vitro PKC kinase assay; format: biochemical; settings: 10 μg rAFAP-110, 0.5 μg PKCα, radiolabeled ATP; FIG. 10A
T1 construct: purchased CalBiochem
Procedure: PKC kinase assays were carried out according to Current Protocols in Molecular Biology (Carter, 1997). Briefly, 10 μg rAFAP-110 purified as mentioned above was incubated at 30° C. for 30 min with 0.5 μg recombinant PKCα in reaction buffer (20 mM Tris, pH 7.5, 5 mM MgCl2, 0.2 mM CaCl2, 20 μg/ml phosphatidylserine, and 2 μg/ml diolein) to which 1 μCi [γ-^32P]ATP was added. Reactions were analyzed by SDS-PAGE.

F-actin = experiment: Actin binding assay (high-speed copelleting, 150,000×g)
Procedure: G-actin was polymerized to F-actin at 5 mM Tris-HCl, pH 8.0, 0.2 mM CaCl2, 0.5 mM DTT, 5 mM MgCl2, and 2 mM ATP at room temperature (RT) for 1 h. Different concentrations of rAFAP-110 were incubated with 2 μM F-actin in 5 mM MgCl2, 1 mM EGTA, 2 mM ATP, 50 mM KCl at RT for 30 min. The reactions were centrifuged at 150,000×g for 1 h at 4° C., and then both pellets and supernatants were collected and analyzed by SDS-PAGE gel.
as §1
The purified rAFAP-110 was incubated with actin filaments. The negative staining image was taken at 16,000 magnification. Black arrows indicate rAFAP-110 aggregates; and white arrow indicates actin filaments. […] The electron micrographs indicate that rAFAP-110 binds to the sides of actin filaments, which was supported by the fact that one mole of actin in filaments bound up to 1.7 mol of rAFAP-110 (FIG. 7C). FIG. 7C is a graph of bound rAFAP-110 versus free rAFAP-110. rAFAP-110 at 0.18,0.29,0.70, 1.34,2.63,3.73,4.67, 5.11,5.34,5.48, and 5.66 μM was incubated with 2 μM concentration of G-actin polymerized into actin filaments and were then centrifuged at 150,000×g. Both supernatants (S) and pellets (P) were applied to SDS-PAGE gel, followed by Coomassie staining. Density of AFAP-110 determined by scanning densitometry was fit as described.

[3] = least-squares fit to Hill equation, 2 μM actin, FIG. 8B
[4] = least-squares fit to Hill equation, 2 μM F-actin, FIG. 7C
[5] = second experiment, Hill equation

- EC50 (actin filaments [2]; 2 μM actin, FIG. 8B, read-out: half maximal cross-linking): 260 nM
- Kd (actin filaments [2]; least-squares fit to Hill equation, 2 μM actin, FIG. 8B, read-out: Kd (cross-linked actin filaments versus free rAFAP-110)): 260 nM
- phosphorylation by PKCα in vitro (recombinant PKCα): phosphorylates
- direct binding to actin filaments (F-actin; 150,000×g for 1 h, FIG. 7A): bind to actin filaments directly
- rAFAP-110 bound per one mole of actin in filaments (F-actin; FIG. 7C): up to 1.7 mol
- BMAX (F-actin; [4]): 4.2 µM
- Kd (F-actin; [4]): 290 nM
- BMAX (F-actin; [5]): 1.5 µM
- Kd (F-actin; [5]): 240 nM
B1: rAFAP-110: Recombinant AFAP-110 purified after production as a GST bacterial fusion protein, using the PreScission Protease system (protein, UniProt Q90738 1-729, looked up)
Actin filament-associated …: MEELIVELRLFLELLDHEYLTSTVREKKAVITNILLRIQSSKGFEIKEHVQKPEVANSLPAPPQMPLPEIPQQWLPPDNGPPPLPTSSLPEGYYEEAVPVSPGKAPEYITSNYDSDAMSSSYESYDEEEEDGKGKKMRHQWPSEEASMDLVKDAKICAFLLRKKRFGQWTKLLCVIKENKLLCYKSSKDQQPQMELLLNDCSITYIPKDSKKKKHELKISHQGADALVLAVQSKEQAEQWLKVIKDVCSNCTGTVDSDGPLSSSPVHKTELEKKLSSERPSSDGEGAVENGITTVCNGKEQVKRKKSSKTEAKGTVTKVTGKKITKIIGLGKKKPSTDEQTSSAEEDVPTCGYLNVLSNNRWRERWCRVKDNKLIFHKDRTDLKTHIVSIPLRGCEVIPGLDSKHPLTFRLLRNGQEVAVLEASSSEDMGRWIGMLLAETGSSTDPGALHYDYIDVEMTASVIQAAKQTFCFMNRRVISTNPYRGSTANGYACPSGMALHYDDVPCINGSFKGKKPPATANGITGKVRTLNSQPKKPESVSCVKRTASNAEQYKYGKNRVEAVAKRLQSKEEELLKRKEALRNRLAQLRKERKDLRAAIEVNAGRKTQVILEDKLKKLEEECKTKEAERVNLELELTEVKESLKKALAGGITLGLAIEPKSGTSSPQSPIFKHRTLENSPISSCDTSDTECSIPVNSAAALKRPPSSNNSPCRGHVLRKAKEWEMKNGT
- confocal fluorescence pattern of actin filaments (actin filaments [1]; FIG. 9A, rAFAP-110 at 1.3 μM): organized into a lacy pattern of swollen and interconnected fluorescent tubes
- organization of actin filaments at low concentration (actin filaments [1]; α-actinin 0.0625 μM, rAFAP-110 0.105 μM, FIG. 9B): did not change the organization of actin filaments
- organization of actin filaments at high concentration (actin filaments [1]; α-actinin 1.25 μM, rAFAP-110 2.1 μM, FIG. 9B): caused some aggregation of actin filaments into large branched structures
- actin cross-linked and sedimented at saturation (actin filaments [2]; 1.63 μM/2.0 μM total actin): 81.5%
- sedimentation of actin filaments at low speed (actin filaments [2]; 20,800×g, FIG. 8A): efficiently sedimented
- BMAX (cross-linked actin filaments) (actin filaments [2]; [3]): 1.63 µM
- n (Hill equation, cross-linking) (actin filaments [2]; [3]): 1.7
